B1: anti-CSPG4 antibody 8G5A6 (antibody, V domains shown)
VH: EVQLQQSGPDLVKPGASVKISCKASGYSFTVYYMNWVKQSHGKSLEWIGRIDPNDGGASYNQKFKGKAILTVDKSSGTAYMELRSLTSEDSAVYYCARRDYYGSKDYWGQGTTLTVSS
VL: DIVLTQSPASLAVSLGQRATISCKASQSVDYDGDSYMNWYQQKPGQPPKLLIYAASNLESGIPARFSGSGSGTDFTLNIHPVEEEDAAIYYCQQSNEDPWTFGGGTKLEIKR
B2: CSPG4-specific mouse monoclonal antibody 7H5A2 (antibody, IgG1, V domains shown)
VH: QVQLQQSGAELVRPGSSVKISCKASGFAFSNYWMNWVKQRPGQGLEWIGQIFPGDGDTNYNGKFKGKATLTADKSSSTAYMQLISLTSEDSAVYFCVRESDWGRGTTLTVSS
VL: DIQMTQTTSSLSASLGDRVTISCSASQGINNYLNWYQQTPDGTVKLLIFYTSSLQSGVPSRFSGSGSGTDYSLTISNLEPEDIATYYCQQYSKLPFTFGSGTKLEIKR
notes: also called anti-CSPG4 antibody 7H5A2

Experiments:
[1] = target: T1, chondroitin sulfate proteoglycan 4 (CSPG4) (human, UniProt Q6UVK1 30-2322); assay: identified by the methods of Example 6 (hybridoma raised against the CSPG4 fragment)
T1 construct: whole, on cells; Endogenous full-length CSPG4 of human ovarian cancer cell lines, on the cell surface or in cell lysates for western blot; also called CSPG4 core protein
T1 sequence (Q6UVK1 30-2322): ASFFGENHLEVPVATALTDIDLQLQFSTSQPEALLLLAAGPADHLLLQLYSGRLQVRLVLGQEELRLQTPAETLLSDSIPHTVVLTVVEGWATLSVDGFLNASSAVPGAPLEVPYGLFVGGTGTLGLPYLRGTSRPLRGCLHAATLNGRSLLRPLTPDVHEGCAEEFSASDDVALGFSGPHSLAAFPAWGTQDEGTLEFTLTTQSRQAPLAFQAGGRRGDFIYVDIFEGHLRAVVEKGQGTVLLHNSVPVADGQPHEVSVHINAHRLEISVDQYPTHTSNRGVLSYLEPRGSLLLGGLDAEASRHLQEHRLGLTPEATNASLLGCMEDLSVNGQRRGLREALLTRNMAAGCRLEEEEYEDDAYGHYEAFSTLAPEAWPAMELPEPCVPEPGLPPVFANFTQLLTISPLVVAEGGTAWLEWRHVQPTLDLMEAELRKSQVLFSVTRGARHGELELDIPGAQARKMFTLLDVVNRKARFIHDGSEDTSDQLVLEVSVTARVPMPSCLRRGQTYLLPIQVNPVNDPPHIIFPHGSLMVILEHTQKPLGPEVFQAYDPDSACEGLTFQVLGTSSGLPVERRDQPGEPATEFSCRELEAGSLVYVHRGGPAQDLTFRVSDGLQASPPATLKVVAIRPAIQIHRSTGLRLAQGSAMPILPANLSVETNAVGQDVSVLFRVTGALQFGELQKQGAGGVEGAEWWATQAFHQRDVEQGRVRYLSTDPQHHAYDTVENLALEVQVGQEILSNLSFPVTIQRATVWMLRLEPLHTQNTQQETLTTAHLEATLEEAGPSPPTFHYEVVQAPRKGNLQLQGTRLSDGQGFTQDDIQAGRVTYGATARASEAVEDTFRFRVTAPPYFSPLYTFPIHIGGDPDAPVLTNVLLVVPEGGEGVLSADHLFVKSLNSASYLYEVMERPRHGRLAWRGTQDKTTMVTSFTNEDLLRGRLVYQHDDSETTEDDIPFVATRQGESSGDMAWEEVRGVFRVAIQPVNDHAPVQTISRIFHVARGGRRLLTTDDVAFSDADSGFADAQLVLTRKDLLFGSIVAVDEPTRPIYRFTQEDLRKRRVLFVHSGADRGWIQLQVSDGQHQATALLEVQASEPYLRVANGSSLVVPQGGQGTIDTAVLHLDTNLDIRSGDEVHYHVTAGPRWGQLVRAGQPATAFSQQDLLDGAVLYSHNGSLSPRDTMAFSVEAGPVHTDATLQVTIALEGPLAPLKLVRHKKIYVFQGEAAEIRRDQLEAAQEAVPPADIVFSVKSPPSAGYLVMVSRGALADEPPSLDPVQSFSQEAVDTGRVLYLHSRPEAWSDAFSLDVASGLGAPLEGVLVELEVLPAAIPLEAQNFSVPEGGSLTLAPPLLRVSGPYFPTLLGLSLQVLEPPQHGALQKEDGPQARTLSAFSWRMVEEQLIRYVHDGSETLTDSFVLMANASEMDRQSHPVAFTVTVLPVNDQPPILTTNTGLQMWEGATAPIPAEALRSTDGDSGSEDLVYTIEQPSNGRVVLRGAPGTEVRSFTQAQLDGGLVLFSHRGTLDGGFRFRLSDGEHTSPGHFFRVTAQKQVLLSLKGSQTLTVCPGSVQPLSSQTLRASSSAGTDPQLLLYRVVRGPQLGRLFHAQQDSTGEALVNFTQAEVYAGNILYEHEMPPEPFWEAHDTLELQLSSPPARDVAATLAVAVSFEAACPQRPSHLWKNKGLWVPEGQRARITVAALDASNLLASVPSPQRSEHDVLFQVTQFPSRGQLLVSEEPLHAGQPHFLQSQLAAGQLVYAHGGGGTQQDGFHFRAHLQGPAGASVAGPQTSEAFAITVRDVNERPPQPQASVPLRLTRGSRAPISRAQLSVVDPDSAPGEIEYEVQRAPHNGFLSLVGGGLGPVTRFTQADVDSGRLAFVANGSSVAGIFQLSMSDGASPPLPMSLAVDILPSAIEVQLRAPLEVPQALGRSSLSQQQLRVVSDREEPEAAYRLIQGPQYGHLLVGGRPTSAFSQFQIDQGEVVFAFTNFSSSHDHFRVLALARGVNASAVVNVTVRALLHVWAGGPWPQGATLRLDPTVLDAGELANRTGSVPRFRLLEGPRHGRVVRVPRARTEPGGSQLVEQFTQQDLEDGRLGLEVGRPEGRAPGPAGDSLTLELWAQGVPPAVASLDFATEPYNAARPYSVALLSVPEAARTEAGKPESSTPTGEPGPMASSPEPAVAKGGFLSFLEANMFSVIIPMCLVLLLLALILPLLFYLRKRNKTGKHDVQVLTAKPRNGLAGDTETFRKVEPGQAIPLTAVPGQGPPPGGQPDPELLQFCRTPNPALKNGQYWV

[2] = target: T1, chondroitin sulfate proteoglycan 4 …; assay: western blot on mock and CSPG4-CRISPR cell lysates; immunofluorescence of cells
Protocol: FIGS. 1A-1D. Antibody 7H5A2 targets CSPG4. FIG. 1A) Amino acid sequence of recombinant protein target used to generate antibody 7H5A2 (SEQ ID NO:34). Black text denotes CSPG4 region (SEQ ID NO:33), the lighter gray text corresponds to human FC sequence for protein purification. […] Cells are harvested in lysis buffer and 40 μg protein was loaded in each well from the indicated mock and CSPG4-CRISPR cell lines. Alpha-tubulin is included as a loading control. FIG. 1D) Immunofluorescence staining of HEY parent cells with antibody 7H5A2. Red bar=10 μm. Magnification 600×.
Generation of novel CSPG4 antibody: CSPG4-specific mouse monoclonal antibody 7H5A2 was generated by Promab Biotechnologies Inc (Richmond, CA) by injection of a recombinant CSPG4 protein immunogen corresponding to aa 1538-2221 of the CSPG4 core protein extracellular domain, expressed and purified from a eukaryotic expression system (see FIG. 1A). The specificity of the antibody was determined by screening against CSPG4 wild type and knockout cell lysates via western blot and cell staining via immunofluorescence (see FIGS. 1B and 1C). 7H5A2 is isotype IgG1.

Binder	binding result [1]	binding result [2]
B1	binds	–
B2	–	binds

— patent US20250313648A1 (REGENTS OF THE UNIVERSITY OF MINNESOTA, published 2025)
